{"source": "patent US5622932A", "about": "(Eli Lilly and Company, priority 1995, dated 1997)", "key": {"IGF-1 receptor": {"target": "T1, IGF-1 receptor (Homo sapiens, UniProt P08069)", "T1 construct": "30-50 μg of human placental membrane protein was incubated; from tissue; host or cells: human placental membranes", "test": "IGF-1 radioreceptor assay (displacement of [125I] ligand from human placental membranes)", "type": "binding", "details": "relative to BCAD (IGF-1) = 100; human placental membrane, 24 hours at 4° C., from EC50 values", "procedure": "(§1) 67:194-197. Briefly, 30-50 μg of human placental membrane protein was incubated with approximately 10 femtomoles of [^125 I] ligand in a final volume of 500 μl of 100 mM HEPES, pH 7.8, 120 mM NaCl, 5 mM KCl, 1.2 mM MgSO4, 8 mM glucose and 0.25% BSA for 24 hours at 4° C. Membranes were collected on glass fiber filters pre-treated with 0.1% polyethyleneimine by using a cell harvester (Skatron, Lier, Norway). Binding data were analyzed by fitting displacement curves to a four parameter model employing Prefit/Allfit® software for the determination of EC50 values."}, "insulin receptor": {"target": "T2, insulin receptor (Homo sapiens, UniProt P06213)", "T2 construct": "30-50 μg of human placental membrane protein was incubated; from tissue; host or cells: human placental membranes", "test": "Insulin radioreceptor assay (displacement of [125I] ligand from human placental membranes)", "type": "binding", "details": "relative to b,a (insulin) = 100; human placental membrane, 24 hours at 4° C., from EC50 values", "procedure": "as §1"}}, "data": [{"substance": "insulin [b,a (insulin)]", "values": [{"measurement": "% IGF-1 POTENCY", "setting": "IGF-1 receptor", "result": 0.37, "unit": "%"}]}, {"substance": "proinsulin [bca (proinsulin)]", "values": [{"measurement": "% IGF-1 POTENCY", "setting": "IGF-1 receptor", "result": "< 0.1", "unit": "%"}]}, {"substance": "IGF-1 [BCAD (IGF-1)]", "values": [{"measurement": "% INSULIN POTENCY", "setting": "insulin receptor", "result": 1.2, "unit": "%"}]}]}
